Changes are numbered by the printed parent chain. “And” between values parts separate entries of the source, which are not always exact repeats. Equal entries are not always repeated.
Tests used:
[1] = target: Peptide 3 (human cytomegalovirus); assay: HuProt array, 0.1 µg/ml
[2] = target: Peptide-N-BSA (human cytomegalovirus); assay: ELISA, Peptide-N-BSA coated
[3] = target: Bio-Peptide-2 (human cytomegalovirus (4D variant)); assay: ELISA (FIG. 5)
[4] = target: Bio-Peptide-2 (human cytomegalovirus (4D variant)); assay: ELISA, Bio-Peptide-2 coated

B1: US28-4-7B1F3 (antibody, mouse IgG1, kappa)
heavy: EVQLQQSGAELAKPGASVKMSCKASGYTFTNYWMHWVKQRPGQGLEWIGYVNPRTGYTEYNQKFKDKATLTADKSSRTAYMQLSSLTSEDSAVYSCARILNGTGFAYWGQGTLVTVSAAKTTPPSVYPLAPGSAAQTNSMVTLGCLVKGYFPEPVTVTWNSGSLSSGVHTFPAVLQSDLYTLSSSVTVPSSTWPSETVTCNVAHPASSTKVDKKIVPRDCGCKPCICTVPEVSSVFIFPPKPKDVLTITLTPKVTCVVVDISKDDPEVQFSWFVDDVEVHTAQTQPREEQFNSTFRSVSELPIMHQDWLNGKEFKCRVNSAAFPAPIEKTISKTKGRPKAPQVYTIPPPKEQMAKDKVSLTCMITDFFPEDITVEWQWNGQPAENYKNTQPIMDTDGSYFIYSKLNVQKSNWEAGNTFTCSVLHEGLHNHHTEKSLSHSPGK
light: DIVLTQSPSSLTVSVGEKFTMSCKSSQSLLYSSNQKNYLAWYQQKPGQSPKLLIYWASTRESGVPDRFTGSGSGTDFTLAISSVKPEDLAIYYCQQYYSFPLTFGAGTKLEIKRADAAPTVSIFPPSSEQLTSGGASVVCFLNNFYPKDINVKWKIDGSERQNGVLNSWTDQDSKDSTYSMSSTLTLTKDEYERHNSYTCEATHKTSTSPIVKSFNRNEC
In the case of B1, the F635 [1] is reported as 50000 AU, the S Score [1] is reported as 116 and the Z Score [1] is reported as 145. It also gave an absorbance [2] of 2.8.

B2: US28-13-5G6-1D3 (antibody)
heavy: EVKLVESGGGLVQPGGSLRLACATSGFTFTDYYMSWVRQPPGKALEWLGFIRSKANGYTTEYSASVKGRFTISRDNSQSILYLQMNTLRSEDSATYYCARDERRTAWLAYWGQGTLVTVSAAKTTPPSVYPLAPGSAAQTNSMVTLGCLVKGYFPEPVTVTWNSGSLSSGVHTFPAVLQSDLYTLSSSVTVPSSTWPSETVTCNVAHPASSTKVDKKIVPRDCGCKPCICTVPEVSSVFIFPPKPKDVLTITLTPKVTCVVVDISKDDPEVQFSWFVDDVEVHTAQTQPREEQFNSTFRSVSELPIMHQDWLNGKEFKCRVNSAAFPAPIEKTISKTKGRPKAPQVYTIPPPKEQMAKDKVSLTCMITDFFPEDITVEWQWNGQPAENYKNTQPIMDTDGSYFIYSKLNVQKSNWEAGNTFTCSVLHEGLHNHHTEKSLSHSPGK
light: DVLMTQTPLSLPVSLGDQASISCRSSQSIVHSNGNTYLDWYLQKPGQSPKLLIYKVSNRFSGVPDRFSGSGSGTDFTLKISRVEAEDLGVYYCFQGSHVPTWTFGGGTKLEIKRADAAPTVSIFPPSSEQLTSGGASVVCFLNNFYPKDINVKWKIDGSERQNGVLNSWTDQDSKDSTYSMSSTLTLTKDEYERHNSYTCEATHKTSTSPIVKSFNRNEC
For B2, the fold binding over BSA control [3] was 27 fold and 28 fold.

B3: US28-14-4E4-1E8 (antibody, mouse IgG1, kappa)
heavy: not shown
light: QIVLSQSPTIMSASPGEKVTMTCSASSSVSYMHWYQQKSGTSPKRWIYDSSKLASGVPARFSGSGSGTSYSLTISSMEAEDAATYYCQQWTSNPPITFGAGTKLELKRADAAPTVSIFPPSSEQLTSGGASVVCFLNNFYPKDINVKWKIDGSERQNGVLNSWTDQDSKDSTYSMSSTLTLTKDEYERHNSYTCEATHKTSTSPIVKSFNRNEC
Binder B3 has an absorbance [4] of 2.87.

B4: US28-13-1H3-1A10 (antibody, mouse IgG1, kappa)
heavy: EVKLVESGGVLVKPGGSLKFSCAASGFTLSSHALSWVRQTPEKRLEWVASISSRGRTYYPDSVKGRFTVSRDNARNILYLQVSSLRSEDTAMYYCTRGGTHYSYGNGFDFWGQGTTLTVSSAKTTPPSVYPLAPGSAAQTNSMVTLGCLVKGYFPEPVTVTWNSGSLSSGVHTFPAVLQSDLYTLSSSVTVPSSTWPSETVTCNVAHPASSTKVDKKIVPRDCGCKPCICTVPEVSSVFIFPPKPKDVLTITLTPKVTCVVVDISKDDPEVQFSWFVDDVEVHTAQTQPREEQFNSTFRSVSELPIMHQDWLNGKEFKCRVNSAAFPAPIEKTISKTKGRPKAPQVYTIPPPKEQMAKDKVSLTCMITDFFPEDITVEWQWNGQPAENYKNTQPIMDTDGSYFIYSKLNVQKSNWEAGNTFTCSVLHEGLHNHHTEKSLSHSPGK
light: B3 light with S5T, T9A, A25V, S50T, S76T, T91S, S92N
With B4 the absorbance [4] was 2.84.

B5: US28-13-1C10-1G9 (antibody, mouse IgG1, kappa)
heavy: not shown
light: B3 light with S5T, T9A, S50T, T91S, I96L
Binder B5 has an absorbance [4] of 3.06.

B6: US28-13-1C10-1C10 (antibody, mouse IgG1, kappa)
heavy: B4 heavy with L29F
light: B3 light with S5T, T9A, A25V, S50T, S76T, T91S, S92N
In the case of B6, the absorbance [4] is reported as 3.03.

Source: patent US20250296984A1, “THERAPEUTIC AND DIAGNOSTIC AGENTS AND USES THEREOF” (priority 2022, published 2025)
